This assay has as its target T1, His-hPPARγ (231-505) ligand-binding domain, wild-type (human, UniProt P37231-1 231-505).
T1 sequence: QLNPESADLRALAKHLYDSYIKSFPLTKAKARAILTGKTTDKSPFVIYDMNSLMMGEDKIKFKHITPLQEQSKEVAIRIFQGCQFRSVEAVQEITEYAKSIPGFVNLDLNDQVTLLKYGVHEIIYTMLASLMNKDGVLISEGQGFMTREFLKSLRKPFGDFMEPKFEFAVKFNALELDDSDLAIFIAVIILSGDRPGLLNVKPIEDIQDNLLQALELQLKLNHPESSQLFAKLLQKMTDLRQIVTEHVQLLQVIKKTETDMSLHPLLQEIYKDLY
The experiment in a line: MST.

Ends that are not written are not given here.

Consider NLGLEDIIRKALMG (also: fluorescent label, dye and position not given here) [fluorescent NCoR1 peptide (2260-NLGLEDIIRKALMG-2273)], for which the binding result was “binds”. Consider EAEEPSLLKKLLLAPA (also: fluorescent label, dye and position not given here) [fluorescent PGC1α peptide (137-EAEEPSLLKKLLLAPA-152)], for which the binding result is “binds”.
